Seven molecules from patent US20180291088A1 can be followed below.

Experiment [1] has as its target EBOV GP on pseudotyped lentivirus particles (EBOV , Mayinga) (UniProt Q05320). The experiment is described as follows: cell-based or functional assay.
Experiment [2] deals with EBOV GP , coated on ELISA plates (EBOV , Mayinga) (UniProt Q05320).
Experiment [3] shares this target. This is another data set of the same source.
In experiment [4] the target is EBOV GP on pseudotyped lentivirus particles (EBOV , Mayinga), Q05320. The experiment is described as follows: cell-based or functional assay.

Values joined by “and” are separate entries in the source; they are usually repeats but may differ in a detail not shown here. Equal values may be shown once. Some results are limits rather than exact numbers.

With 13C6 monoclonal antibody, in experiment [1], the neutralization of pseudovirus at 10 µg/mL was under 20%.
Turning to KZ52 monoclonal antibody, in experiment [1], the maximum inhibition of input pseudovirus is 80% and 90%.

B1: EVB165 monoclonal antibody (antibody, V domains shown)
VH: DVQLVESGGGVVQPGGSLKLACVVSGFRFSDYWMSWVRQAPGKGLEWVANIKQDGSGKYYVDSVKGRFTVSRDNAKNSLYLHMTSLGAEDTAVYFCARAAPTGSYTNILVDNVHFDYWGQGILVAVSS
VL: GIQLTQSPGSLSASVGDSVTITCRPNQNIATYINWYQQTPGKAPKLLIYAASILQSGVPSRFSGAGSGTHFTLIISTLQPEDSATYYCQQSYSTPWTFGQGTKVEIK
B1 showed an EC50 in experiment [2] of over 1 µg/mL. In addition, in experiment [3], the Abs 450 was 3.17 A450 and 1.72 A450. The same molecule came in with a maximum inhibition of input pseudovirus in experiment [4] of 100%.

B2: EVB114 monoclonal antibody (antibody, V domains shown)
VH: EVQLVESGGGLIQPGGSLRLSCAASGFALRMYDMHWVRQTIDKRLEWVSAVGPSGDTYYADSVKGRFAVSRENAKNSLSLQMNSLTAGDTAIYYCVRSDRGVAGLFDSWGQGILVTVSS
VL: DIQMTQSPSSLSASVGDRITITCRASQAFDNYVAWYQQRPGKVPKLLISAASALHAGVPSRFSGSGSGTHFTLTISSLQPEDVATYYCQNYNSAPLTFGGGTKVEIK
For the molecule B2, in experiment [2], the EC50 was found to be 0.07 µg/mL and the maximal binding, higher than the other mAbs turned out to be 100%. The maximum inhibition of input pseudovirus in experiment [4] was determined as 100%.

B3: EVB166 monoclonal antibody (antibody, V domains shown)
VH: QVQLVQSGAEVKKPGSSVKVSCKTSGGTLSNYAISWVRQAPGQGLEWMGGTIPTLGMSTYAPNFQGRVAITADKSTSTAYMELSSLRSDDTAVYYCATMGSADTSFYFYMDVWGKGTTVTVSS
VL: EIVLTQSPGTLSLSPGERATLSCRASQSVSSSYLAWYQQKPGQAPRLLIYGTSSRATGIPDRFSGSASGTDFTLTISRLEPEDFAVYYCQQYAYSPFTFGPGTKVDIK
In experiment [4], B3 displayed a maximum inhibition of input pseudovirus of 100%.

B4: EVB167 monoclonal antibody (antibody, V domains shown)
VH: AVQLVQSGAEVKKPGTTVKISCKVSGYTFIQEYIHWVQQAPGKGLVWMGLGDPENNETLYSEDFQGRVTMTADTSSDTAYLELRSLTFADTAVYFCTSRKSWWGQGTLVTVAS
VL: ELVLTQSPGTLSLSPGESATLSCRASQSLSSDSVSWFQQKPGQAPRLVIHGTSKRATGIPDRFSGGGSGTDFTLTIARLEPEDFAVYYCQRSGYGMSVTWTFGQGTTVEIK
Take B4: in experiment [3], the Abs 450 was 3.37 A450 and 2.97 A450.

B5: EVB100 monoclonal antibody (antibody, V domains shown)
VH: QVQLQESGPGLVKPSDTLSLTCTVSGGSLSSFYWSWIRQPPGKGLEWIGYIYYSGSPNYSPSLESRVTMSVDTTRNQISLKLDSVTAADTAVYYCVRASRSYYWGSYRPTAFDSWGQGTLVTVSS
VL: SYELTQPLSVSVSPGQTAIFTCSGDNLGDKYVCWFQQRPGQSPMLLIYQDNKRPSGIPERFSGSNSGNTATLTISGTQSTDEADYYCQTWDSTVVFGGGTKLTVL
In the case of B5, the 50% effective concentration (EC50) in experiment [2] was determined as 0.26 µg/mL. This molecule also returned a maximum inhibition of input pseudovirus in experiment [4] of 100%.
